From patent US20120058906A1

Tests used:
[1] = target: rHuman CD44/Fc Chimera, CF (R&D Systems Cat#3660-CD) (human) (UniProt P16070); assay: ECL (MSD multi-spot), Fab 340 nM; blank 554
[2] = target: rHuman ErbB2/Fc Chimera, CF (R&D Systems Cat#1129-ER) (human) (UniProt P04626); assay: ECL (MSD multi-spot), Fab 340 nM; blank 554
[3] = target: rHuman Erythropoietin R/Fc Chimera, CF (R&D Systems Cat#963-ER) (human) (UniProt P19235); assay: ECL (MSD multi-spot), Fab 340 nM; blank 554
[4] = target: rHuman HGF R/c-MET/Fc Chimera, CF (R&D Systems Cat#358-MT/CF) (human) (UniProt P08581); assay: ECL (MSD multi-spot) screen, antigen spotted on plate, Fab at 0.34 uM; blank spot 356
[5] = target: rHuman P-Cadherin/Fc Chimera, CF (R&D Systems Cat#861-PC) (human) (UniProt P22223); assay: as above
[6] = target: rHuman Notch-1/Fc Chimera, CF (R&D Systems Cat#3647-TK) (human) (UniProt P46531); assay: as above
[7] = target: rHuman ErbB2/Fc Chimera, CF (R&D Systems Cat#1129-ER) (human) (UniProt P04626); assay: as above
[8] = target: rHuman Erythropoietin R/Fc Chimera, CF (R&D Systems Cat#963-ER) (human) (UniProt P19235); assay: as above
[9] = target: rHuman IGF-1 sR, CF (R&D Systems Cat#391-GR) (human) (UniProt P08069); assay: as above

rHuman Erythropoietin R/Fc Chimera, CF (R&D Systems Cat#963-ER) (human), sequence (P19235 25-250, change not shown): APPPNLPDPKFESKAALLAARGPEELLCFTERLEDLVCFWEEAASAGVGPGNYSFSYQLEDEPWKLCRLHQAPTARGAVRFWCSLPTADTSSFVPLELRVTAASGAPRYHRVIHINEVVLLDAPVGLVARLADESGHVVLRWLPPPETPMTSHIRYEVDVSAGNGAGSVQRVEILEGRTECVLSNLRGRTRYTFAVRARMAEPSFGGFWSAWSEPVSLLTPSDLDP

Fab VH4-34_IGHD7-27*01_IGHJ4*01 & V4-6_IGLJ4*01
ECL signal [1]: 959 ECL signal | ECL signal [2]: 1230 ECL signal | ECL signal [3]: 1260 ECL signal | ECL signal [4]: 914 | ECL signal [5]: 935 | ECL signal [6]: 912 | ECL signal [7]: 900 | ECL signal [8]: 907 | ECL signal [9]: 871
